Test results from US20150110788A1 (published 2015).
Blank lines part the entries; values can stand above or below the binder they belong to.

How the values were obtained:
FGF2 = FGF2 (UniProt P09038 143-288); assay: ELISA
VEGF = target: T1, VEGF (UniProt P15692 27-191); assay: ELISA
T1 chain: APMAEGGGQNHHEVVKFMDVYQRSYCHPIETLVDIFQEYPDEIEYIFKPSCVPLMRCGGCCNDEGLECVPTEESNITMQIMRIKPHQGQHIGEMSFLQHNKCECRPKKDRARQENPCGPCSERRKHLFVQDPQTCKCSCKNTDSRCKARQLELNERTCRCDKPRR

Chain of FGF2 (P09038 143-288): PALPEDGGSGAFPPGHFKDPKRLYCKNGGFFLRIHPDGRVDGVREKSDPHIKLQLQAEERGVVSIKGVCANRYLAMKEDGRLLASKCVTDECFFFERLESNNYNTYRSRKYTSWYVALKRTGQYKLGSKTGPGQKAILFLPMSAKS

- EC50 (FGF2): 100 pM
B1: HuGAL-F2 (antibody, V domains shown)
VH: EVQLVQSGAEVKKPGSSVKVSCKASGYTFTNYVINWVRQAPGQGLEWIGYNDPYNDVSKYNEKFKGRATITSDKSTSTAYMELSSLRSEDTAVYYCAKEGGGKYVYAMDSWGQGTTVTVSS
VL: DIQMTQSPSSLSASVGDRVTITCKASQSVSSDVGWYQQKPGKAPKLLIYSGSNRYSGVPSRFSGSGSGTDFTLTISSLQPEDFATYYCQQDYYSPWTFGQGTKVEIK

- EC50 (FGF2): 350 pM
- EC50 (VEGF): 1430 pM
B2: X-Ava/F2 (bispecific antibody)
light 1: DIQMTQSPSSLSASVGDRVTITCKASQSVSSDVGWYQQKPGKAPKLLIYSGSNRYSGVPSRFSGSGSGTDFTLTISSLQPEDFATYYCQQDYYSPWTFGQGTKVEIKRTVAAPSVFIFPPSDEQLKSGTASVVCLLNNFYPREAKVQWKVDNALQSGNSQESVTEQDSKDSTYSLSSTLTLSKADYEKHKVYACEVTHQGLSSPVTKSFNRGEC
heavy 1: not shown
light 2: DIQMTQSPSSLSASVGDRVTITCSASQDISNYLNWYQQKPGKAPKVLIYFTSSLHSGVPSRFSGSGSGTDFTLTISSLQPEDFATYYCQQYSTVPWTFGQGTKVEIKSSASTKGPSVFPLAPSSKSTSGGTAALGCLVKDYFPEPVTVSWNSGALTSGVHTFPAVLQSSGLYSLSSVVTVPSSSLGTQTYICNVNHKPSNTKVDKRVEPKSC
heavy 2: not shown
